In article PMC5042466, “Irreversible Inhibition of Glutathione S-Transferase by Phenethyl Isothiocyanate (PEITC), a Dietary Cancer Chemopreventive Phytochemical” (PLoS ONE, 2016):

Biological target: the molecule itself
Test: crystal structure; hGSTA1 (13 mg/ml) mixed with GSH and PEITC, 6 h at 4°C; sitting drop, 20% PEG 3350, 0.2 M sodium acetate; 1.93 Å, space group C2

B1: human alpha class glutathione S-transferase of subunit type 1 (hGSTA1), Cys112-PEITC adduct, with GS-PEITC bound (enzyme)
chain: AEKPKLHYFNARGRMESTRWLLAAAGVEFEEKFIKSAEDLDKLRNDGYLMFQQVPMVEIDGMKLVQTRAILNYIASKYNLYGKDIKERALIDMYIEGIADLGEMILLLPVCPPEEKDAKLALIKEKIKNRYFPAFEKVLKSHGQDYLVGNKLSRADIHLVELLYYVEELDSSLISSFPLLKALKTRISNLPTVKKFLQPGSPRKPPMDEKSLEEARKIFRF
modifications: Cys112 side chain covalently modified by PEITC (phenethyl isothiocyanate)
notes: glutathione S-transferase alpha 1 (hGSTA1), human; In the crystal the active site holds the small-molecule product GS-PEITC; also called hGSTA1-PEITC; hGSTA1:GS-PEITC; source: prepared as described [11,12]
binding result: binds
